Experimental data published in patent EP2108954A1, “A test system for detecting intracellular cyclic nucleotide level and methods and uses thereof” (Max-Planck-Gesellschaft zur Förderung der Wissenschaften …, priority 2008, dated 2009).
The star is where a group is joined. Myristoyl = CCCCCCCCCCCCCC(=O)*

Biological target: T1, Or83b (Drosophila melanogaster, UniProt Q9VNB5)
T1 sequence (Q9VNB5 1-486): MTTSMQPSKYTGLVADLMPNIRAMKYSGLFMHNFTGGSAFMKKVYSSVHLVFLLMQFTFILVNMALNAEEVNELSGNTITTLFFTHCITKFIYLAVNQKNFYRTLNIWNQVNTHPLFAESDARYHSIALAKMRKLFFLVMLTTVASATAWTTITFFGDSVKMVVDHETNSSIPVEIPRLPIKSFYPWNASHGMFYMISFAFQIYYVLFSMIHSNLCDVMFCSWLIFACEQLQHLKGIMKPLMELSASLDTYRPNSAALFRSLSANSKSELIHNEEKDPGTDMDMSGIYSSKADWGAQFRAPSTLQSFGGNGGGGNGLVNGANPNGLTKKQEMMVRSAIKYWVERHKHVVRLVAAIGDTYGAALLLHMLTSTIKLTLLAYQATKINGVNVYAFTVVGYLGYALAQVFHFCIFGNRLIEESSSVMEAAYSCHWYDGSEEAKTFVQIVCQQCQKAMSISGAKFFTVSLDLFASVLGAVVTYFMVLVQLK
Assay: Whole-cell patch-clamp of HEK293 cells expressing Or83b alone
Assay type: cell-based
Design: expressed in transfected cells; host or cells: HEK293
Conditions: 1 µM; n = 6
Procedure: HEK293 cells were cultured as described by Wicher and colleagues (Wicher et al., J. Biol. Chem. 281, 3227-36 (2006)). In brief, HEK293 cells were cultured at a density of ∼2*10^4 per 35-mm dish and transfected with 1 µg pcDNA3-DOR22a-GFP and 1 µg pcDNA3-DOR83b-GFP (Neuhaus, et al., Nat. Neurosci. 8, 15-17 (2005); DNAs were a generous gift of Dr. E. Neuhaus and Dr. H. Hatt) using Roti-Fect transfection kit (Roth, Karlsruhe, Germany). In some experiments we transfected cells with pcDNA3-DOR22a-GFP or pcDNA3-DOR83b-GFP alone. We also examined the properties of DOR47a, which was cloned, using standard molecular biology methods into a pcDNA3.1(-) expression vector. To test for putative G-protein coupling, cells were transfected with the respective OR-DNA together with 1.5 µg hHCN2/pcDNA3 (provided by M. Biel, Munich, Germany), with 1 µg hKCNQ4/pcDNA3.1 or with 1 µg hCNGA2/pCMV6-XL4 (Origene, Rockville, MD, USA).
Ion currents in HEK293 cells were measured with the patch-clamp technology as described (Wicher et al, J. Biol. Chem. 281, 3227-36 (2006)). In brief, ion currents in HEK293 cells were measured at room temperature using whole-cell patch-clamp with appropriate compensation of series resistance and of capacitive currents. Additional experiments were performed in the outside-out configuration. […]

## myristoylated PKA inhibiting peptide 14-22 amide (Myristoyl-SGRTGRRNA-NH2; SMILES CCCCCCCCCCCCCC(=O)N[C@@H](CO)C(=O)NCC(=O)N[C@@H](CCCNC(=N)N)C(=O)N[C@H](C(=O)NCC(=O)N[C@@H](CCCNC(=N)N)C(=O)N[C@@H](CCCNC(=N)N)C(=O)N[C@@H](CC(N)=O)C(=O)N[C@@H](C)C(N)=O)[C@@H](C)O; UniProt P61925 14-22, looked up, fragment) [PKI1422]
  effect of preincubation on ion currents elicited by 8-bromo-cAMP: not significantly altered
